Reference: patent publication US20190328837A1 (Stanford University, published 2019)
Changes are numbered by the printed parent chain. Numbers in names are those of the source.

Experiments:
[1] = target: T1, wild-type CNTFR-HIS (human, UniProt P26992 23-342); test: flow cytometry, yeast-displayed CLCF1 construct, soluble CNTFR-HIS titrated, apparent Kd from a four-parameter fit
T1 construct: also called wtCNTFR-HIS; HIS tagged CNTFR; not shown: HIS tag
T1 sequence: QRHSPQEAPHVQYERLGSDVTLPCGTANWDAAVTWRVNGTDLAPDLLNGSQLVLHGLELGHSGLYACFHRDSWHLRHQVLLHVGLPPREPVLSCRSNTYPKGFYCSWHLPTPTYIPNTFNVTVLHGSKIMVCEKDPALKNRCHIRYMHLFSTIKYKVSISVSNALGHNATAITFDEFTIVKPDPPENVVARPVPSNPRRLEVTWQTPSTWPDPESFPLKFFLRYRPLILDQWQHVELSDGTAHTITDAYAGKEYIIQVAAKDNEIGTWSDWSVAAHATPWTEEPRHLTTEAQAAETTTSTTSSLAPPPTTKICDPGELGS
Description: (§1) Using equilibrium binding conditions and screened by flow cytometric sorting (FACS), high throughput screening of the CLCF1 library using wtCNTFR-HIS was performed to enrich variants showing increased CLCF1 binding. Expression signal was used to normalize CNTFR binding to distinguish high expressers from high affinity binders. Screening stringency was increased throughout sorting by decreasing the concentration of wtCNTFR-HIS incubated with the library. […] Thus a variant containing the three mutations (named FRR-CLCF1) was chosen for further characterization (FIG. 7).
(§2) Yeast displaying CLCF1 constructs were incubated with varying concentrations of CNTFR for 12 h at room temperature to reach equilibrium binding. This was followed by washing with BPBS and resuspension in PBSA with 1:500 ratio of chicken anti-c-Myc (Invitrogen) for 30 min at 4 C. Yeast were then washed and pelleted, and secondary labeling was performed on ice for 30 min using PBSA with 1:100 dilution of goat anti-chicken PE (Santa Cruz) and mouse anti-HIS Hilyte Fluor 488 (Anaspec). Then samples were washed and analyzed by flow cytometry using Accuri (BD Biosciences). Samples were analyzed on BD Bioscience software, and data were analyzed using FlowJo software. Kd values were determined by fitting to a four-parameter sigmoidal curve. Error bars represent the standard deviation of triplicate experiments.

[2] = target: T1, wild-type CNTFR-HIS; test: flow cytometry, yeast-displayed CLCF1 construct, soluble CNTFR-HIS titrated, anti-HIS Hilyte Fluor 488 detection
Description: as §1, §2

[3] = target: T1, wild-type CNTFR-HIS; test: yeast surface display, equilibrium titration with CNTFR-HIS, flow cytometry (apparent Kd)
Description: as §1, §2

[4] = target: T2, wild-type CNTFR-Fc (human, UniProt P26992 23-342); test: sandwich ELISA, soluble CLCF1 titrated against 2 nM CNTFR-Fc, anti-mouse-Fc capture, anti-CLCF1 detection
T2 construct: also called wtCNTFR-Fc; not shown: Fc domain; captured with anti-mouse Fc antibody
T2 sequence: T1 sequence
Description: (§3) The CLCF1 variants isolated from screening were cloned into the pET28b bacterial expression plasmid and expressed and purified. […] A sandwich ELISA was performed using an anti-mouse Fc antibody as a capturing agent for wtCNTFR-Fc, followed by an anti-CLCF1 antibody as a detection agent for the bound complex. […] ELISA was also used to measure binding interactions with the gp130 and LIFR beta receptors.
(§4) To measure the solution-phase binding interaction between the CLCF1 constructs and CNTFR, different concentrations of soluble, recombinant CLCF1 variants and wtCLCF1 were incubated with 2 nM CNTFR-Fc in BPBS for 12 h at room temperature. The mixture was then added to 96-well plates coated with anti-mouse-Fc antibody for 1 h followed by washing with BPBS twice. Subsequently, the wells were incubated with 1:1000 diluted anti-CLCF1 rabbit antibody for 2 h at room temperature then washed four times with BPBS. The wells were incubated with a 1:1000 diluted HRP conjugated anti-rabbit antibody for 2 h at room temperature, and washed four times with BPBS. 1-Step Ultra TMB ELISA was used for the readout, which was measured using a plate reader (Tecan).

[5] = target: T2, wild-type CNTFR-Fc; test: cell-free ELISA, HIS-tagged soluble CLCF1 titrated against 2 nM CNTFR-Fc, anti-HIS capture, HRP anti-mouse detection
Description: (§5) 96-well plates were coated with 10 μg/mL of anti-HIS antibody overnight and blocked with 5% milk for 1 h. The plates were then washed twice with BPBS. Different concentrations of soluble constructs of HIS-tagged CLCF1 variants were incubated with 2 nM CNTFR-Fc in BPBS for 12 h at room temperature. The mixture was then added to 96-well plates coated with anti-HIS antibody for 1 h followed by washing with BPBS twice. Subsequently, the wells were incubated with 1:1000 diluted HRP conjugated anti-mouse antibody for 1 h at room temperature then washed four times with PBS. 1-Step Ultra TMB ELISA (Thermo Fisher Scientific) was used for the readout detected using a plate reader (Tecan).

[6] = target: T2, wild-type CNTFR-Fc; test: cell-free ELISA, HIS-tagged soluble CLCF1 titrated against 2 nM CNTFR-Fc
Description: as §5

[7] = target: T2, wild-type CNTFR-Fc; test: cell-free ELISA: HIS-tagged CLCF1 constructs with 2 nM CNTFR-Fc, captured by anti-HIS, detected by anti-mouse HRP; FRR-CLCF1 plus Y22C
Description: as §5

[8] = target: T1, wild-type CNTFR-HIS; test: flow cytometry, yeast-displayed CLCF1 construct, soluble CNTFR titrated, apparent Kd
[9] = target: T2, wild-type CNTFR-Fc; test: sandwich ELISA, soluble CLCF1 titrated against 2 nM CNTFR-Fc, apparent Kd
Description: as §3, §4

[10] = target: T2, wild-type CNTFR-Fc; test: assay not given; the FRR-CLCF1 and sfCLCF1 values in it equal those of FIG. 17 B (cell-free ELISA with 2 nM CNTFR-Fc)
[11] = target: T2, wild-type CNTFR-Fc; test: cell-free ELISA: HIS-tagged CLCF1 constructs with 2 nM CNTFR-Fc, captured by anti-HIS, detected by anti-mouse HRP; FRR-CLCF1 plus K180R
From the text: (§6) This was subsequently confirmed using a cell-free ELISA method. […] Unexpectedly, Y22C, W169L, and K180R decreased binding for gp130 with the combined mutations leading to the lowest binding while the mutations led to increased LIFR binding through increased CNTFR binding (FIG. 18). Because reduced binding interaction with beta receptors is desirable for antagonizing activation of CNTFR-CLCF1 mediated pathways, the clone with all six mutations, which was named sfCLCF1 (shuffled CLCF1) was selected for further studies.
as §5

[12] = target: T2, wild-type CNTFR-Fc; test: cell-free ELISA: HIS-tagged CLCF1 constructs with 2 nM CNTFR-Fc, captured by anti-HIS, detected by anti-mouse HRP; FRR-CLCF1 plus W169L
Description: as §5

[13] = target: T1, wild-type CNTFR-HIS; test: flow cytometry, yeast-displayed CLCF1 construct, soluble CNTFR titrated
[14] = target: T2, wild-type CNTFR-Fc; test: cell-free ELISA: HIS-tagged CLCF1 constructs with 2 nM CNTFR-Fc, captured by anti-HIS, detected by anti-mouse HRP; all six mutations combined (sfCLCF1)
From the text: as §6, §5

B1: v2 (ligand)
CLCF1 variant displayed on yeast as Aga2p fusion with c-myc tag: LNRTGDPGPGPSIQKTYDLTRYLEHQLRSLAGTYLNYLGPPFNEPDFNPPRLGAETLPRATVDLEVWRSLNDKLRLTQNYEAYSHFLCYLRGLNRRAATAELRRSLAHFCTSLQGLLGSIAGVMAALGYPLPQPLPGTEPTWTPGPAHSDFLQKMDDFWLLKELQTWLWRSAKDFNRLKKKMQPPAAAVTLHLGAHGF
[1]
  Kd: 3.1 nM
[2]
  EC50 (read off the curve): ~4 nM

B2: yeast-displayed CLCF1 variant L86F (ligand)
chain: B1 CLCF1 variant displayed on yeast as Aga2p fusion with c-myc tag
[3]
  Kd: 3.1 nM

B3: recombinant soluble wild-type human CLCF1 (ligand)
chain: B1 CLCF1 variant displayed on yeast as Aga2p fusion with c-myc tag with F86L, R96Q
notes: Expressed in E. coli from pET28b and purified from inclusion bodies by RP-HPLC; also called wtCLCF1; wild-type CLCF1
[4]
  EC50 (read off the curve): ~80 nM
[5]
  EC50 (read off the curve): ~80 nM

B4: yeast-displayed CLCF1 variant H148R (ligand)
chain: B1 CLCF1 variant displayed on yeast as Aga2p fusion with c-myc tag with F86L, H148R
[3]
  Kd: 4.2 nM

B5: v4 (ligand)
soluble CLCF1 variant: B1 CLCF1 variant displayed on yeast as Aga2p fusion with c-myc tag with H148R, W169L, K180R
notes: the text prints no Kd for it
[6]
  Kd: 0.2 nM
[5]
  EC50 (read off the curve): ~0.2 nM

B6: recombinant soluble FRR-CLCF1 with Y22C (ligand)
chain: B1 CLCF1 variant displayed on yeast as Aga2p fusion with c-myc tag with Y22C, H148R
notes: HIS-tagged in the cell-free assay
[7]
  Kd: 0.464 nM

B7: v2 (ligand)
CLCF1 variant displayed on yeast as Aga2p fusion with c-myc tag: B1 CLCF1 variant displayed on yeast as Aga2p fusion with c-myc tag with H148R, W169L
[8]
  Kd: 0.22 nM

B8: v3 (ligand)
soluble CLCF1 variant: B1 CLCF1 variant displayed on yeast as Aga2p fusion with c-myc tag with F86L, H148R
[9]
  Kd: 2.5 nM
[4]
  EC50 (read off the curve): ~2 nM

B9: FRRAA-CLCF1 (ligand)
chain: B1 CLCF1 variant displayed on yeast as Aga2p fusion with c-myc tag with H148R, F151A, K154A
notes: It is read as FRR-CLCF1 plus the LIFR-reducing alanine substitutions F151A and K154A
[10]
  Kd: 0.93 nM

B10: yeast-displayed CLCF1 variant Q96R (ligand, not shown: large carriers; small tags and cut ends)
chain: B1 CLCF1 variant displayed on yeast as Aga2p fusion with c-myc tag with F86L
[3]
  Kd: 7.9 nM
[2]
  EC50 (read off the curve): ~6 nM

B11: recombinant soluble FRR-CLCF1 with K180R (ligand)
chain: B1 CLCF1 variant displayed on yeast as Aga2p fusion with c-myc tag with H148R, K180R
notes: Read as FRR-CLCF1 plus K180R; HIS-tagged in the cell-free assay
[11]
  Kd: 0.559 nM

B12: recombinant soluble FRR-CLCF1 with W169L (ligand)
chain: B1 CLCF1 variant displayed on yeast as Aga2p fusion with c-myc tag with H148R, W169L
notes: Read as FRR-CLCF1 plus W169L; HIS-tagged in the cell-free assay
[12]
  Kd: 0.64 nM

B13: v5 (ligand)
CLCF1 variant displayed on yeast as Aga2p fusion with c-myc tag: B1 CLCF1 variant displayed on yeast as Aga2p fusion with c-myc tag with Y22C, H148R
[8]
  Kd: 0.18 nM

B14: v4 (ligand)
CLCF1 variant displayed on yeast as Aga2p fusion with c-myc tag: B1 CLCF1 variant displayed on yeast as Aga2p fusion with c-myc tag with H148R, W169L, K180R
notes: The five consensus mutations without Y22C
[8]
  Kd: 0.08 nM
[13]
  EC50 (read off the curve): ~0.4 nM

B15: v2 (ligand)
soluble CLCF1 variant: B1 CLCF1 variant displayed on yeast as Aga2p fusion with c-myc tag
[9]
  Kd: 2.3 nM
[4]
  EC50 (read off the curve): ~2 nM

B16: yeast-displayed FRR-CLCF1 (L86F, Q96R, H148R) (ligand, not shown: large carriers; small tags and cut ends)
chain: B1 CLCF1 variant displayed on yeast as Aga2p fusion with c-myc tag with H148R
notes: also called the variant with all three mutations
[8]
  Kd: 0.83 nM
[2]
  EC50 (read off the curve): ~1 nM
[13]
  EC50 (read off the curve): ~1 nM

B17: enCLCF1 (engineered CLCF1; Y22C, L86F, Q96R, H148R, F151A, K154A, W169L, K180R) (ligand)
chain: B1 CLCF1 variant displayed on yeast as Aga2p fusion with c-myc tag with Y22C, H148R, F151A, K154A, W169L, K180R
notes: That change is not in the list of mutations; also called sfAA-CLCF1
[10]
  Kd: 0.12 nM

B18: recombinant soluble sfCLCF1 (shuffled CLCF1; Y22C, L86F, Q96R, H148R, W169L, K180R) (ligand)
chain: B1 CLCF1 variant displayed on yeast as Aga2p fusion with c-myc tag with Y22C, H148R, W169L, K180R
notes: HIS-tagged in the cell-free assay; also called the clone with all 6 mutations; a variant with all of the mutations combined
[14]
  Kd: 0.115 nM
[5]
  EC50 (read off the curve): ~0.2 nM

B19: v3 (ligand)
CLCF1 variant displayed on yeast as Aga2p fusion with c-myc tag: B1 CLCF1 variant displayed on yeast as Aga2p fusion with c-myc tag with H148R, K180R
[8]
  Kd: 0.28 nM

B20: yeast-displayed CLCF1 variant with Y22C, L86F, Q96R, H148R, W169L, K180R (ligand, not shown: large carriers; small tags and cut ends)
chain: B1 CLCF1 variant displayed on yeast as Aga2p fusion with c-myc tag with Y22C, H148R, W169L, K180R
notes: also called the resulting variant (five consensus mutations combined with Y22C)
[8]
  Kd: 0.06 nM
[13]
  EC50 (read off the curve): ~0.1 nM

B21: v1 (ligand)
soluble CLCF1 variant: B1 CLCF1 variant displayed on yeast as Aga2p fusion with c-myc tag with F86L
[9]
  Kd: 6.6 nM
[4]
  EC50 (read off the curve): ~6 nM

B22: v3 (ligand)
CLCF1 variant displayed on yeast as Aga2p fusion with c-myc tag: B1 CLCF1 variant displayed on yeast as Aga2p fusion with c-myc tag with F86L, H148R
[1]
  Kd: 4.2 nM
[2]
  EC50 (read off the curve): ~3 nM
